For one test, the system named is C-terminal domain of μ3A. The settings on record: previously shown; ref [18]; cited from earlier work. The text has this:
(§1) This tyrosine-based signal is related to the YXXØ motif, which is the signal contained in the cytosolic tail of transmembrane proteins that binds to a different site on the μ2 subunit of AP-2 [28], or on the μ3A subunit of AP-3 [30]. In this study, we wanted to determine whether this putative second binding site on μ4, referred here as the μ2-binding site (Figure 1, A and B), played any role in the binding to the YKFFE signal of APP ...

Test [1] has as its target T1, recombinant μ4 C-terminal domain, wild-type (Homo sapiens, UniProt O00189).
T1 construct: recombinant C-terminal domain of human μ4 (residues 160-453); GST followed by TEV protease cleavage site (N, cleaved yes); made in house; host or cells: E. coli B834(DE3)pLysS
T1 sequence (O00189 160-453): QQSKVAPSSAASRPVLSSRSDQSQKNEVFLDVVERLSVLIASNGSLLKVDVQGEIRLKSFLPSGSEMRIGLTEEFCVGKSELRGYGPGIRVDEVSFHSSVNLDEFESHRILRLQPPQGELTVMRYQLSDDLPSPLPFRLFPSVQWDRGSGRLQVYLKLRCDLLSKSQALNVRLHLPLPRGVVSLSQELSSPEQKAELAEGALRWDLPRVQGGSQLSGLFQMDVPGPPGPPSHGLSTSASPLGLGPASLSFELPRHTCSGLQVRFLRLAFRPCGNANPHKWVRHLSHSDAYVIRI
In words: Isothermal titration calorimetry with wild-type μ4. It counts as binding. The conditions noted are these: canonical YXXØ signal peptides, 28°C, pH 7.4, stoichiometry and Kd N/D. (In general: In ITC the heat of successive injections is recorded.)
Description: Recombinant μ4 C-terminal variants were dialyzed overnight at 4°C against excess ITC buffer (50 mM Tris-HCl, pH 7.4, 150 mM NaCl), and an APP peptide ([sequence]), a CD63 peptide (SGYEVM), or a TGN38 peptide (SDYQRL; New England Peptide, Gardner, MA) were also prepared in ITC buffer. All ITC experiments were carried out at 28°C using an iTC200 instrument (GE Healthcare). […] Titration curves were analyzed using Origin software (MicroCal). The binding constant corresponding to each μ4 construct was calculated by fitting the curves to a one-site model.
Isothermal titration calorimetry of recombinant C-terminal domain of wild-type μ4 with the TGN38 SDYQRL peptide (C), or the CD63 SGYEVM peptide (D).

Test [2] has as its target T2, recombinant C-terminal domain of human μ4-D190S (human, UniProt O00189 160-453, D190S).
T2 construct: also called D190S mutant; source: E. coli B834(DE3)pLysS, purified (glutathione-Sepharose 4B, TEV cleavage, Ni-NTA, Superdex 200); not shown: GST, N-terminal, cleaved
T2 sequence (looked up): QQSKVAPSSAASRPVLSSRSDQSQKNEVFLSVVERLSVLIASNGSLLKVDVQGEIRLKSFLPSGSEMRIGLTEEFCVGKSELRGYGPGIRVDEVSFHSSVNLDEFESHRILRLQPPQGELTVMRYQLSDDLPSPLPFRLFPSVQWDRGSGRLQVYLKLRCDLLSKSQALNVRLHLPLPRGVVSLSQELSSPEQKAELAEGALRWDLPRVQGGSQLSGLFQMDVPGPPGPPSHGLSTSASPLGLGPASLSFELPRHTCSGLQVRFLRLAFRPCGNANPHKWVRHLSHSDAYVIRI
In words: ITC; 28°C, 50 mM Tris-HCl pH 7.4, 150 mM NaCl; chamber 250–500 µM μ4 construct, peptide 2.5–5.0 mM in 16 injections; one-site model. The conditions noted are these: both partners purified.

Test [3] has as its system cytosolic tail of APP. The settings on record: mutations at μ4-binding site; previously identified; ref [18]; cited from earlier work.
Source text: as §1

For another test, the system named is canonical YXXØ signals. The settings on record: previous reports; ref [31]; cited from earlier work.
Source text: as §1

For test [4], the system named is cytosolic tail of APP. In words: Yeast two-hybrid (Y2H) analysis of μ4 with the APP tail. The test is classed as binding. The conditions noted are these: mutations at μ2-binding site; growth on -His plates, 30°C. The text has this: The cloning of the tail of APP (residues 649–695), full-length human μ4, and all the other yeast two-hybrid (Y2H) constructs, and the cloning of the C-terminal domain of μ4 for expression in E. coli was described previously. To generate a construct for mammalian expression, full-length human μ4 was obtained by PCR amplification and cloned into the EcoRI and SalI sites of pEGFP-N1 (BD BiosciencesClontech, Mountain View, CA) including a stop-codon before the GFP coding sequence. The cloning of APP-GFP carrying the double mutation F615P/D664A was described previously. Single amino acid substitutions were introduced using the QuikChange mutagenesis kit (Stratagene, La Jolla, CA). Y2H assays were performed as previously described. A set of pCI-neo (Promega) constructs encoding hemagglutinin (HA)-epitope tagged wild-type or mutants of human μ4 was a generous gift of J. Bonifacino and R. Mattera (Cell Biology and Metabolism Program, NICHD, NIH). The nucleotide sequences of all recombinant constructs were confirmed by dideoxy sequencing.
Figure 1 Yeast two-hybrid analysis of the interaction of μ4 with the cytosolic tail of APP. (A) Superposition of the surface and ribbon representations of human wild-type μ4 C-terminal domain (pdb entry 3L81). The insets show an enlargement of the μ4-binding site and the putative μ2-binding site with residues chosen for the yeast two-hybrid (Y2H) analysis. The APP peptide (TYKFFEQ; stick model) bound to the μ4-binding site is in yellow, and the EGFR peptide (FYRALM; stick model; pdb entry 1BW8) superposed to the putative μ2-binding site is in magenta. (B) Sequence alignment of the C-terminal domain of the μ subunits of known crystal structure depicting critical residues at the corresponding μ2- and μ4-binding sites. Disordered loops are in yellow letters, and arrows and cylinders represent β-strands and α-helices, respectively. M.m., Mus musculus; R.n., Rattus norvegicus; H.s., Homo sapiens. (C) and (D) Yeast were co-transformed with plasmids encoding Gal4bd fused to the cytosolic tail of the amyloid precursor protein (APP) indicated on the left, and Gal4ad fused to wild-type or mutant μ4 constructs indicated on top of each panel. (C) Y2H analysis of μ4 with mutations on the YKFFE binding site (μ4-binding site). (D) Y2H analysis of μ4 with mutations on a putative YXXØ binding site (μ2-binding site). Mouse p53 fused to Gal4bd and SV40 large T antigen (T Ag) fused to Gal4ad were used as controls. Co-transformed cells were spotted onto His-deficient (-His) or His-containing (+His) plates and incubated at 30°C. Growth is indicative of interactions. Some mutations on either of the two sites affect the interaction of μ4 with the cytosolic tail of APP.

For the molecule “SDYQRL [TGN38 SDYQRL peptide, peptide bearing the canonical YXXØ signal of TGN38]”, the “binding to C-terminal domain of μ3A” value with C-terminal domain of μ3A is listed as “bind well”. Besides, the “interaction (ITC)” value in test [1] is “undetectable”.
“SGYEVM [CD63 SGYEVM peptide, peptide bearing the canonical YXXØ signal of CD63]”: the “binding to C-terminal domain of μ3A” value with C-terminal domain of μ3A is recorded as “bind well”. Besides, the “interaction (ITC)” value in test [1] was “undetectable”.

B1: APP peptide ENPTYKFFEQ (peptide)
peptide: ENPTYKFFEQ
notes: amyloid precursor protein (APP), stretch of the cytosolic tail with the YKFFE signal (Y687 to Q692 printed); numbers count on: APP695; also called APP sorting signal; source: synthetic peptide (New England Peptide)
B1: the binding result in test [2] is reported as “binds”.

B2: E265A: μ4 mutant, μ4-binding site, reported previously (protein, UniProt O00189 1-453, looked up, variant E265A)
AP-4 complex subunit mu-1: MISQFFILSSKGDPLIYKDFRGDSGGRDVAELFYRKLTGLPGDESPVVMHHHGRHFIHIRHSGLYLVVTTSENVSPFSLLELLSRLATLLGDYCGSLGEGTISRNVALVYELLDEVLDYGYVQTTSTEMLRNFIQTEAVVSKPFSLFDLSSVGLFGAETQQSKVAPSSAASRPVLSSRSDQSQKNEVFLDVVERLSVLIASNGSLLKVDVQGEIRLKSFLPSGSEMRIGLTEEFCVGKSELRGYGPGIRVDEVSFHSSVNLDEFASHRILRLQPPQGELTVMRYQLSDDLPSPLPFRLFPSVQWDRGSGRLQVYLKLRCDLLSKSQALNVRLHLPLPRGVVSLSQELSSPEQKAELAEGALRWDLPRVQGGSQLSGLFQMDVPGPPGPPSHGLSTSASPLGLGPASLSFELPRHTCSGLQVRFLRLAFRPCGNANPHKWVRHLSHSDAYVIRI
Take B2: the “effect of mutation on binding to the APP YKFFE signal” value (shortened to “effect of mutation on binding”) in the test with cytosolic tail of APP [3] is “null effect”.

B3: D190A: μ4 mutant, μ2-binding site, Y2H construct (protein)
chain: MISQFFILSSKGDPLIYKDFRGDSGGRDVAELFYRKLTGLPGDESPVVMHHHGRHFIHIRHSGLYLVVTTSENVSPFSLLELLSRLATLLGDYCGSLGEGTISRNVALVYELLDEVLDYGYVQTTSTEMLRNFIQTEAVVSKPFSLFDLSSVGLFGAETQQSKVAPSSAASRPVLSSRSDQSQKNEVFLAVVERLSVLIASNGSLLKVDVQGEIRLKSFLPSGSEMRIGLTEEFCVGKSELRGYGPGIRVDEVSFHSSVNLDEFESHRILRLQPPQGELTVMRYQLSDDLPSPLPFRLFPSVQWDRGSGRLQVYLKLRCDLLSKSQALNVRLHLPLPRGVVSLSQELSSPEQKAELAEGALRWDLPRVQGGSQLSGLFQMDVPGPPGPPSHGLSTSASPLGLGPASLSFELPRHTCSGLQVRFLRLAFRPCGNANPHKWVRHLSHSDAYVIRI
modifications: left off: Gal4 activation domain, end not stated, kept
Turning to B3, in the test with canonical YXXØ signals, the “interaction of μ4 mutant with canonical YXXØ signals” value is “loss of these interactions”. Moreover, the “effect of mutation on interaction of the APP tail with μ4 (Y2H)” value in the test on cytosolic tail of APP [4] is “abrogated”.

B4: R283D: μ4 mutant, μ4-binding site, Y2H construct (protein, UniProt O00189 1-453, looked up, variant R283D)
AP-4 complex subunit mu-1: MISQFFILSSKGDPLIYKDFRGDSGGRDVAELFYRKLTGLPGDESPVVMHHHGRHFIHIRHSGLYLVVTTSENVSPFSLLELLSRLATLLGDYCGSLGEGTISRNVALVYELLDEVLDYGYVQTTSTEMLRNFIQTEAVVSKPFSLFDLSSVGLFGAETQQSKVAPSSAASRPVLSSRSDQSQKNEVFLDVVERLSVLIASNGSLLKVDVQGEIRLKSFLPSGSEMRIGLTEEFCVGKSELRGYGPGIRVDEVSFHSSVNLDEFESHRILRLQPPQGELTVMDYQLSDDLPSPLPFRLFPSVQWDRGSGRLQVYLKLRCDLLSKSQALNVRLHLPLPRGVVSLSQELSSPEQKAELAEGALRWDLPRVQGGSQLSGLFQMDVPGPPGPPSHGLSTSASPLGLGPASLSFELPRHTCSGLQVRFLRLAFRPCGNANPHKWVRHLSHSDAYVIRI
For the molecule B4, the “effect of mutation on binding” value in the test with cytosolic tail of APP [3] is “sensitivity”.

B5: R283A: μ4 mutant, μ4-binding site, reported previously (protein, UniProt O00189 1-453, looked up, variant R283A)
AP-4 complex subunit mu-1: MISQFFILSSKGDPLIYKDFRGDSGGRDVAELFYRKLTGLPGDESPVVMHHHGRHFIHIRHSGLYLVVTTSENVSPFSLLELLSRLATLLGDYCGSLGEGTISRNVALVYELLDEVLDYGYVQTTSTEMLRNFIQTEAVVSKPFSLFDLSSVGLFGAETQQSKVAPSSAASRPVLSSRSDQSQKNEVFLDVVERLSVLIASNGSLLKVDVQGEIRLKSFLPSGSEMRIGLTEEFCVGKSELRGYGPGIRVDEVSFHSSVNLDEFESHRILRLQPPQGELTVMAYQLSDDLPSPLPFRLFPSVQWDRGSGRLQVYLKLRCDLLSKSQALNVRLHLPLPRGVVSLSQELSSPEQKAELAEGALRWDLPRVQGGSQLSGLFQMDVPGPPGPPSHGLSTSASPLGLGPASLSFELPRHTCSGLQVRFLRLAFRPCGNANPHKWVRHLSHSDAYVIRI
For B5, the “effect of mutation on binding” value with cytosolic tail of APP [3] was “null effect”.

B6: F255A: μ4 mutant, μ4-binding site, Y2H construct (protein, UniProt O00189 1-453, looked up, variant F255A)
AP-4 complex subunit mu-1: MISQFFILSSKGDPLIYKDFRGDSGGRDVAELFYRKLTGLPGDESPVVMHHHGRHFIHIRHSGLYLVVTTSENVSPFSLLELLSRLATLLGDYCGSLGEGTISRNVALVYELLDEVLDYGYVQTTSTEMLRNFIQTEAVVSKPFSLFDLSSVGLFGAETQQSKVAPSSAASRPVLSSRSDQSQKNEVFLDVVERLSVLIASNGSLLKVDVQGEIRLKSFLPSGSEMRIGLTEEFCVGKSELRGYGPGIRVDEVSAHSSVNLDEFESHRILRLQPPQGELTVMRYQLSDDLPSPLPFRLFPSVQWDRGSGRLQVYLKLRCDLLSKSQALNVRLHLPLPRGVVSLSQELSSPEQKAELAEGALRWDLPRVQGGSQLSGLFQMDVPGPPGPPSHGLSTSASPLGLGPASLSFELPRHTCSGLQVRFLRLAFRPCGNANPHKWVRHLSHSDAYVIRI
With B6, the “effect of mutation on binding” value in the test with cytosolic tail of APP [3] is on record as “sensitivity”.

B7: L261S: μ4 mutant, μ4-binding site, Y2H construct (protein, UniProt O00189 1-453, looked up, variant L261S)
AP-4 complex subunit mu-1: MISQFFILSSKGDPLIYKDFRGDSGGRDVAELFYRKLTGLPGDESPVVMHHHGRHFIHIRHSGLYLVVTTSENVSPFSLLELLSRLATLLGDYCGSLGEGTISRNVALVYELLDEVLDYGYVQTTSTEMLRNFIQTEAVVSKPFSLFDLSSVGLFGAETQQSKVAPSSAASRPVLSSRSDQSQKNEVFLDVVERLSVLIASNGSLLKVDVQGEIRLKSFLPSGSEMRIGLTEEFCVGKSELRGYGPGIRVDEVSFHSSVNSDEFESHRILRLQPPQGELTVMRYQLSDDLPSPLPFRLFPSVQWDRGSGRLQVYLKLRCDLLSKSQALNVRLHLPLPRGVVSLSQELSSPEQKAELAEGALRWDLPRVQGGSQLSGLFQMDVPGPPGPPSHGLSTSASPLGLGPASLSFELPRHTCSGLQVRFLRLAFRPCGNANPHKWVRHLSHSDAYVIRI
With B7, the “effect of mutation on binding” value with cytosolic tail of APP [3] is given as “sensitivity”.

The values above are taken from paper PMC3912200, “Structural and Functional Characterization of Cargo-Binding Sites on the μ4-Subunit of Adaptor Protein Complex 4” (PLoS ONE, 2014).
